In paper PMC6234845 (Biochemistry, 2018):
Values belong to the molecule of their own block, whether it stands above or below them.

Columns and labels:
[1] = biological target: Src13-GCN4-EGFP / Src13-GCN4-mCH; assay: PIE-FCCS
[2] = biological target: the molecule itself; assay: PIE-FCCS

- fc, fraction correlated [1]: 0.13
Molecule: Src13-GCN4-EGFP / Src13-GCN4-mCH

B1: wild type rod opsin-EGFP / rod opsin-mCherry (receptor, mouse, UniProt P15409 1-348, looked up)
chain: MNGTEGPNFYVPFSNVTGVVRSPFEQPQYYLAEPWQFSMLAAYMFLLIVLGFPINFLTLYVTVQHKKLRTPLNYILLNLAVADLFMVFGGFTTTLYTSLHGYFVFGPTGCNLEGFFATLGGEIALWSLVVLAIERYVVVCKPMSNFRFGENHAIMGVVFTWIMALACAAPPLVGWSRYIPEGMQCSCGIDYYTLKPEVNNESFVIYMFVVHFTIPMIVIFFCYGQLVFTVKEAAAQQQESATTQKAEKEVTRMVIIMVIFFLICWLPYASVAFYIFTHQGSNFGPIFMTLPAFFAKSSSIYNPVIYIMLNKQFRNCMLTTLCCGKNPLGDDDASATASKTETSQVAPA
- fc (mean), fraction correlated [2]: 0.114
- fc (median), fraction correlated [2]: 0.107
